B1: anti-CR-1 antibody Clone 35 (antibody, V domains shown)
VH: QVQLQQSGPGLVKPSQTLSLTCAISGNSVSSNSAAWNWIRRSPSRGLEWLGRTYYRSKWYNDYAVSVKSRITIKPDTSKNQFSLQLNSVTPEDTAMYYCARGFCSGGRCYSFDYWGPGTLVTVSS
VL: QSVLTQPASVSGSPGQSITISCTGTDSDVGAYGSASWYRHSPGKAPQLIIYDVTNRPSGVSNRFYGSKSGNTASLTISGLQAEDEADYYCQAWDSGIHVVFGGGTQLTVL
notes: VH of phage clone 35 from the human scFv phage display library; human IgG heavy-chain constant region (CH1, CH2 and CH3) of the vector pHIgH5zeo; VL of phage clone 35 from the human scFv phage display library; human IgG light-chain constant region (CL) of the vector pHIgL5hyg; Whole human IgG format (VH-CH1-CH2-CH3 and VL-CL); also called anti-CR-1 Ab Clone 35; anti-CR-1 Clone 35 antibody
B2: anti-CR-1 antibody Clone 292 (antibody, V domains shown)
VH: QVQLQQSGPGLVKPSQTLPLTCAIYGDSVSSNSAAWNWIRQSPSRGLEWLGRTYYRSKWYNDYAVSVQSRITINPDTSKNQFSLQLNSVTPEDTAMYYCAKGKLSLEVITTRGWDWGQGTLVTVSS
VL: QSVLTQPRSVSGSPGQSVTISCTGTRADVGTYHYVSWYQRHPGKAPKLIIYDVSKRPSGVPDRFSGSKSGNTASLTVSGLQAEDEADYYCQSADSSGTYVIFGGGTQLTVL
notes: VH of phage clone 292; human IgG heavy chain constant region CH1-CH2-CH3 from the vector pHIgH5zeo; VL of phage clone 292; human IgG light chain constant region CL from the vector pHIgL5hyg; whole human IgG built from the VH and VL of the scFv phage clone; also called anti-CR-1 Ab; source: ExpiCHO-S, transfected, conditioned medium
B3: anti-CR-1 antibody Clone 35 (antibody, V domains shown)
VH: B1 VH
VL: B1 VL
notes: VH of phage clone 35; human IgG heavy chain constant region CH1-CH2-CH3 from the vector pHIgH5zeo; VL of phage clone 35; human IgG light chain constant region CL from the vector pHIgL5hyg; whole human IgG built from the VH and VL of the scFv phage clone; also called anti-CR-1 Ab Clone 35; anti-CR-1 Ab; source: ExpiCHO-S, transfected, conditioned medium; also purified (HiTrap protein A)
B4: anti-CR-1 antibody Clone 331 (antibody, V domains shown)
VH: QVQLQQSGPGQVKPSQSLSLICAISGDSVSTSSAAWNWIRQSPSRGFEWLGRTFYRSGWFTDYAASVKSRITINPDTSKNQFSLQLNSVTPEDTAMYYCARIRSGYRFDYWGQGILVAVSS
VL: NFMLTQPPSASGTPGQRVTVSCSGSSSNIGSNFVFWYQHLPGKAPKLLIYRNHQRPSGVPDRFSGSKSGTSASLAISGLRSEDESDYYCQVWDDRNVVFGGGTQLTVL
notes: VH of phage clone 331; human IgG heavy chain constant region CH1-CH2-CH3 from the vector pHIgH5zeo; VL of phage clone 331; human IgG light chain constant region CL from the vector pHIgL5hyg; whole human IgG built from the VH and VL of the scFv phage clone; also called anti-CR-1 Ab; source: ExpiCHO-S, transfected, conditioned medium
B5: anti-CR-1 antibody Clone 242 (antibody, V domains shown)
VH: QVQLVESGGGLVQPGGSLRLSCAASGFTFSNKPMSWVRQAPGKGLEWLSAISGSGVYAYFADSAKGRFTISRDNSKNTPYLQMNSLRAEDTAMYYCARQHITMLPGWFDPWGQGTLVTVSS
VL: QSVLTQPPSASGSPGQSVTISCTGSSSDVGGYNYVSWYQQHPGKAPKLMIYEVSKRPSGVPDRFSGSKSGNTASLTVSGLQAEDEAEYHCATWDNSLSSWVFGRGTQLTVL
notes: VH of phage clone 242; human IgG heavy chain constant region CH1-CH2-CH3 from the vector pHIgH5zeo; VL of phage clone 242; human IgG light chain constant region CL from the vector pHIgL5hyg; whole human IgG built from the VH and VL of the scFv phage clone; also called anti-CR-1 Ab; source: ExpiCHO-S, transfected, conditioned medium
B6: anti-CR-1 antibody Clone 226 (antibody, V domains shown)
VH: QVQLQQSGPGLVKPSQTLSLTCAISGDSVSSNSAAWNWIRQSPSRGLEWLGRTYYRSKWYNDYAVSVKSRITINPDTSKNQFSLQLNSVTPEDTAVYYCTPTPTWWPVRWGQGTLVTVSS
VL: QSALTQPRSVSGSPGQSVTISCTGTSGDVGYYDHVSWYQQHPGKAPKLFIYDVTKRPSGVPDRFSASKSGNTASLTISRLQAEDEAEYHCLTWGNSAVFGGGTQLTVL
notes: VH of phage clone 226; human IgG heavy chain constant region CH1-CH2-CH3 from the vector pHIgH5zeo; VL of phage clone 226; human IgG light chain constant region CL from the vector pHIgL5hyg; whole human IgG built from the VH and VL of the scFv phage clone; also called anti-CR-1 Ab; source: ExpiCHO-S, transfected, conditioned medium
B7: anti-CR-1 antibody Clone 224 (antibody, V domains shown)
VH: QVQLQQSGPGLVKPSQTLSLTCAISGDSVSSNSATWNWIRQSPSRGLEWLGRTYYKSKWYNEYAVSVKSRITINPDTSKNQFSLQLDSVTPEDTAMYYCATDRYYARDYWGRGTLVTVSS
VL: QSVLIQPRSVSGSPGQSVTISCTGTSGDVGYYDHVSWYQQHPGKAPKIMIYDVTQRPSGVPDRFSGSRSGNTASLTISGLQADDESDYYCVLYLGNGIWVFGGGTQLTVL
notes: VH of phage clone 224; human IgG heavy chain constant region CH1-CH2-CH3 from the vector pHIgH5zeo; VL of phage clone 224; human IgG light chain constant region CL from the vector pHIgL5hyg; whole human IgG built from the VH and VL of the scFv phage clone; also called anti-CR-1 Ab; source: ExpiCHO-S, transfected, conditioned medium
B8: anti-CR-1 antibody Clone 212 (antibody, V domains shown)
VH: QVQLQQSGPGLVKPSQTLSLTCGISGDSVSSNSAAWNWIRQSPSRGLEWLGRTYYRSQWYNDYAVSVNSRITINPDTSKNQFSLQLNSVTPEDTAMYYCARTLRTPLADDYYYSGMDAWGQGTTVTVSS
VL: QSVLIQPASVSGSPGQSITISCTGTSSDVGSYNLASWYQHHPGKAPKLMIYEVNNRPSGVSNRFSGSKSGNTASLTISGLQAEDEADYYCQVWDGSGDPHAVFGGGTQLTVL
notes: VH of phage clone 212; human IgG heavy chain constant region CH1-CH2-CH3 from the vector pHIgH5zeo; VL of phage clone 212; human IgG light chain constant region CL from the vector pHIgL5hyg; whole human IgG built from the VH and VL of the scFv phage clone; also called anti-CR-1 Ab; source: ExpiCHO-S, transfected, conditioned medium
B9: anti-CR-1 antibody Clone 90 (antibody, V domains shown)
VH: QVQLQQSGPGLVKPSQTLSLTCAISGDSVSSNSAAWNWIRQSPSRGLEWLGRTYYRSKWYNDYAVSVKSRITIKPDTSKNQFSLQLYSVTPEDTAMYYCARDSYGMDVWGQGTTATVSS
VL: NFMLTQPPSASGTPGQRVSISCSGSSSNIGSSSVYWCRQLPGTAPKLLIYDVTNRPSGVPDRFSASKSGTSASLAISGLRSEDESDYYCVLYMGSGISVFGGGTKVTVL
notes: VH of phage clone 90; human IgG heavy chain constant region CH1-CH2-CH3 from the vector pHIgH5zeo; VL of phage clone 90; human IgG light chain constant region CL from the vector pHIgL5hyg; whole human IgG built from the VH and VL of the scFv phage clone; also called anti-CR-1 Ab; source: ExpiCHO-S, transfected, conditioned medium

T1 sequence (P13385 31-150): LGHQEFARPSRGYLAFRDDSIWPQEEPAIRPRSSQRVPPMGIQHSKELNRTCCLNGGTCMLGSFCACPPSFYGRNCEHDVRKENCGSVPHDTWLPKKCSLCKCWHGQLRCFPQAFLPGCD
Sequence of Cripto-1 (CR-1) in CR-1 overexpressing human cancer cell lines and cancer tissues (P13385 31-150): as above

One assay concerns the target T1, recombinant soluble human CR-1 protein (rshCR-1) (Homo sapiens, UniProt P13385).
T1 construct: Cripto-1 (CR-1), human, recombinant soluble form; also called rhsCR-1; recombinant Cripto-1
As to the kind of experiment: BLI; Octet; rshCR-1 (2 ng/mL) fixed to amine reactive biosensor; purified antibody 25-200 nM; global fitting, steady state analysis section. The conditions noted are these: both partners purified. (In general: In BLI a coated tip is dipped into the sample, and binding shifts an interference pattern.)
As usually defined, the koff is the first-order rate constant of dissociation. As to B1, the off-rate (koff) amounted to 0.0114 s⁻¹.

A further assay addresses Cripto-1 (CR-1) in CR-1 overexpressing human cancer cell lines and cancer tissues (Homo sapiens, UniProt P13385). As to the kind of experiment: cell-based or functional assay.
Settings: not given
For B1, the “growth inhibition of GEO cells overexpressing CR-1 (MTT, 72 h), antibody 2.1–136 µg/mL (14–900 nM); IC50” value is about 110 nM.

In the next assay the target is T2, recombinant soluble human CR-1 protein (Homo sapiens, UniProt P13385).
T2 construct: Cripto-1 (CR-1), human, recombinant soluble form; also called rshCR-1; rhsCR-1
T2 sequence (P13385 31-150): as above
As to the kind of experiment: BLI; Octet RED96; rshCR-1 immobilised on Amine Reactive (AR2G) biosensor; anti-CR-1 Abs in ExpiCHO-S conditioned medium as analyte. The conditions noted are these: one partner purified.
For the molecule B2, the koff stood at 0.0207 s⁻¹.

In the case of B3, the koff was 0.0186 s⁻¹.

Regarding B4, the koff amounted to 0.0181 s⁻¹.

Turning to B5, the dissociation rate constant (koff) came out at 0.0187 s⁻¹.

For B6, the koff was 0.0194 s⁻¹.

As for B7, the off-rate (koff) turned out to be 0.0191 s⁻¹.

On to B8, for which the off-rate constant (koff) turned out to be 0.0209 s⁻¹.

For B9, the dissociation rate constant (koff) is 0.0196 s⁻¹.
